For 29 sequences, protein stability index results are on record in the supplement of paper PMC10567573.

± gives the standard deviation.

The series in a line: protein stability index of a GFP-peptide fusion (GPS, HEK-293T) (PSI 1-6); higher = more stable. The settings on record: c terminus: a fixed tail appended.
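Further: 24-mer peptide tiles fused after GFP, lentivirally expressed, FACS-sorted into six equal bins by GFP/DsRed ratio, decoded by Illumina sequencing, PSI is the read-weighted mean bin number.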

For SSRGAPRGGGRGGSRSDRGGGRSR [RBMX], the protein stability index reads like this: (treatment: DMSO) 5.34 ± 0.18; (treatment: MLN4924 1 uM, 8 h) 5.45 ± 0.28.

With IEREHLIQLRRWQETRGELQCRSP [TBC1D10A], the protein stability index was determined as 3.88 ± 0.2 (treatment: DMSO) and 3.82 ± 0.24 (treatment: MLN4924 1 uM, 8 h).

In the case of LMVDFAQERQMLQALKFLPVPSAP [FSD1], the protein stability index is 2.21 ± 0.081 (treatment: DMSO) and 2.22 ± 0.3 (treatment: MLN4924 1 uM, 8 h).

As to MNGGMSLVAFVLLNECVGTAYWAL [SLC22A15], the protein stability index by setting is: (treatment: DMSO) 3.91 ± 2; (treatment: MLN4924 1 uM, 8 h) 3.13 ± 0.38.

Turning to LHASTVKRYGLGAHRGRLNIQAGI [CPXM2], the protein stability index runs as follows: (treatment: DMSO) 2.52 ± 0.12; (treatment: MLN4924 1 uM, 8 h) 2.51 ± 0.2.

For TRIFTEDRFAQDSEMKKCSDYESI [PPEF2], the protein stability index is, setting by setting: (treatment: DMSO) 4.42 ± 0.098; (treatment: MLN4924 1 uM, 8 h) 4.25 ± 0.18.

Take FVIGHLKGAPASWWNHMHFQHHAK [FADS1]: the protein stability index is, setting by setting: (treatment: DMSO) 2.65 ± 0.89; (treatment: MLN4924 1 uM, 8 h) 2.24 ± 0.47.

QRDVGWAALLILFAASLLTVFAWL [C2CD2L] came in with a protein stability index (treatment: DMSO) of 2.94 ± 0.34 and a protein stability index (treatment: MLN4924 1 uM, 8 h) of 3.05 ± 0.56.

On to KVSEGQADIMISFVRGDHRDNSPF [MMP1], for which the protein stability index runs as follows: (treatment: DMSO) 3.1 ± 0.41; (treatment: MLN4924 1 uM, 8 h) 3.09 ± 0.52.

Consider ATGFHFNAMTCEGCKGFFRRSMKR [VDR], for which the protein stability index is 2.63 ± 0.18 (treatment: DMSO) and 2.9 ± 0.21 (treatment: MLN4924 1 uM, 8 h).

In the case of YSECIVTVGGEERVSRKPTAAMRC [GAN], the protein stability index (treatment: DMSO) was 3.56 ± 0.32 and the protein stability index (treatment: MLN4924 1 uM, 8 h) came out at 3.85 ± 0.66.

Regarding ESLQELRLLLAGAEVQAKLENAEV [HES6], the protein stability index came out at 2.84 ± 0.41 (treatment: DMSO) and 3.15 ± 0.4 (treatment: MLN4924 1 uM, 8 h).

LMMCFILPTLVPWYFWGETFQNSV [SCD]: the protein stability index is, setting by setting: (treatment: DMSO) 2.94 ± 0.69; (treatment: MLN4924 1 uM, 8 h) 3.24 ± 0.075.

Turning to FGTQVENFSTFIKCIFTQFRIILG [PKD2L1], the protein stability index reads like this: (treatment: DMSO) 2.35 ± 0.058; (treatment: MLN4924 1 uM, 8 h) 2.24 ± 0.32.

Take KHPQPAPAVTPDPWGVQGGQESEV [PKD2L1]: the protein stability index by setting is: (treatment: DMSO) 5.24 ± 0.22; (treatment: MLN4924 1 uM, 8 h) 4.97 ± 0.21.

For the sequence TDSPWIKPARKRRRRSRKKPSGAL [EHMT1], the protein stability index (treatment: DMSO) turned out to be 5.2 ± 0.39 and the protein stability index (treatment: MLN4924 1 uM, 8 h) turned out to be 5.22 ± 0.47.

Consider DVQARLNRSDHGIFHSRTSLQKLS [FCHSD1], for which the protein stability index reads like this: (treatment: DMSO) 3.09 ± 0.22; (treatment: MLN4924 1 uM, 8 h) 3.16 ± 0.3.

On to IASEWFLIANRSYKVSAASSFFFS [SLC22A15], for which the protein stability index is, setting by setting: (treatment: DMSO) 3.03 ± 0.19; (treatment: MLN4924 1 uM, 8 h) 2.94 ± 0.42.

As for EWASHTAALTNKHSQELTNEKEKA [SASS6], the protein stability index runs as follows: (treatment: DMSO) 5.574 ± 0.002; (treatment: MLN4924 1 uM, 8 h) 5.39 ± 0.19.

DWFTSYVKNVVSGGFPIIRDQIFR [FBXO3]: the protein stability index came to 2.61 ± 0.34 (treatment: DMSO) and 2.41 ± 0.39 (treatment: MLN4924 1 uM, 8 h).

Turning to CKKLSLELGGKNPAIIFEDANLDE [ALDH8A1], the protein stability index reads like this: (treatment: DMSO) 4.4 ± 0.11; (treatment: MLN4924 1 uM, 8 h) 4.32 ± 0.26.

Consider TLDLSDLEAEKLVMFQRRYYKPGL [SCD], for which the protein stability index by setting is: (treatment: DMSO) 2.54 ± 0.3; (treatment: MLN4924 1 uM, 8 h) 2.88 ± 0.35.

Take HAPGVPKILVGNRLHLAFKRQVPT [RAB40B]: the protein stability index runs as follows: (treatment: DMSO) 2.49 ± 0.5; (treatment: MLN4924 1 uM, 8 h) 2.6 ± 0.35.

With IPDAFWWAVVTMTTVGYGDMKPIT [KCNA4], the protein stability index came to 3.8 ± 0.42 (treatment: DMSO) and 3.53 ± 0.16 (treatment: MLN4924 1 uM, 8 h).

In the case of AMPDPTVPDSDIKALTTLCDLADR [ESRRG], the protein stability index (treatment: DMSO) is 5.11 ± 0.28 and the protein stability index (treatment: MLN4924 1 uM, 8 h) is 5.15 ± 0.16.

In the case of SFGNCTYNLTILDCLQGIRKGLQH [CDC14A], the protein stability index stood at 2.38 ± 0.36 (treatment: DMSO) and 2.33 ± 0.44 (treatment: MLN4924 1 uM, 8 h).

With GEESSKAKEVTIAKADTTSTVTPV [EHMT1], the protein stability index (treatment: DMSO) worked out at 5.55 ± 0.27 and the protein stability index (treatment: MLN4924 1 uM, 8 h) was 5.45 ± 0.078.

As to RMEGSQEVVNMAVIVPKEEGVISV [WDFY2], the protein stability index reads like this: (treatment: DMSO) 3.23 ± 0.36; (treatment: MLN4924 1 uM, 8 h) 3.45 ± 0.17.

With TGPAWNVLMWTMLFLGQGIQVSLY [SOAT2], the protein stability index is 3.38 ± 0.42 (treatment: DMSO) and 3.26 ± 0.34 (treatment: MLN4924 1 uM, 8 h).
